The assay concerns the target His6-tagged CHIP (C-terminus of Hsc70-interacting protein) (UniProt Q9UNE7). In words: BLI.
UniProt Q9UNE7, sequence (Q9UNE7 whole entry): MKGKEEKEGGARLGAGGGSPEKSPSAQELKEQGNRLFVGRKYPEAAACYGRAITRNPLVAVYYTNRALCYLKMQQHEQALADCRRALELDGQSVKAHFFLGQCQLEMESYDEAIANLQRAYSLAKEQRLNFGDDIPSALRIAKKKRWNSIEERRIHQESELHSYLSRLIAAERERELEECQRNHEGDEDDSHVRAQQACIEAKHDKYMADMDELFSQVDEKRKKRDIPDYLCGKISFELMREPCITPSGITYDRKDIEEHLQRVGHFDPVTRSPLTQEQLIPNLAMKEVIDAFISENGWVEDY

By Kd is commonly meant the equilibrium constant for the complex coming apart. The low end stands for tighter binding, the high end for weaker binding. Consider “E2 (UbcH5b), wild type (from UniProt P62837 1-147) (enzyme; other documents disagree on this pair)”, for which the Kd amounted to 6.28 µM.

For the origin of these results see paper PMC10529061.
